This note sets out measurements from the DeepSol protein solubility set.

The nature of this data set: soluble on expression in E. coli; label from the status in PepcDB or PDB records.
With “MNTINRNYYPVSGIPAQDAPAQTDQLPPQGQGIKPGHNSNLIDFGLTQQANGPHSSLNTLGSRVQPTDTNTSSNMPGGNGEQVLNKLVQAIRNILNNLLSLLEGNLHNGSGPAQPQRDQTPTLAQSPSSASPSSSPPSTPQGNAEKPFVVQNDHPSEKPVSLQKNTEPTSAAPSQTAPRTTERSSATPDKTPARPDAVNPAVVHDLALPKTSTDTTAKPDNTVNAAKTATPAAHGQGADMSGIMGFAKEANTTGGNGGEVVTVNTVADLKKYMEDDKARTVKLGANLSADSKVTINFGANKTLLGTDKGNSLHNIYLASGKTASNDIFQNLNFDHDSRYRENGDMQMFISSGQKYWIDHNTYSGTKDQNAKGLDKLLYVGGTADNVSLTNSKFQNNEYGVILGQPDDSAQAKAEYKGYPRMTIANNVFSNLDVRAPGLMRHGQFDVLNNSIDNFHLGFTATGDATILSQANYFAKGVDVSDKASNSGVLDDYGDAHFKDIGSNVSFTQKSAVTAWTPSYQRDIKTAEAARAYDQANAGAKTVS”, the “soluble on expression in E. coli” value is reported as “not soluble”.
For the sequence “MSLCDQKNDTLQGKQNNMTAFIKKIAASKESEETQRYVGNLNGIEIKLTYYYKGDIVLRQISEHKLLYKTLKANNKEEAQKMLSQVGEAYQGMPGLTERIDYYDSYATEYVDINFTQAKISDLCKLPGSSIDNCSAYYLSMIRSQKLLEESGYHRINEGHHHHHH”, the “soluble on expression in E. coli” value is listed as “soluble”.
The result for “MSLCAVTLMACNTAPHSLASSLPVPDALLFPQVQPEYKVAPGDLLLIKVFQVDDLERQVRVDNTGRITLPLLGSIEVSNKGAAELETLIANRYRSDYLQDPQVSVFIQEANARRVTVTGAVTEPGTYPLIGSNLTLQQVIAQAKGINTLASLQNVVVFRTVKGQKMLARFDLARIERGKDPDPEIYPGDLVVVYRSDMRLFLRTLVEITPFVMVWRAYREGHHHHHH” reads “soluble”.
The result for “MGSDKIHHHHHHMTKDQQNIERGSVINVEILNAAHGGQGIAKYDGRVIFVKGAFPGDRLSANITHVKKKFARATIASIEMPSPLRMQQRCLAAANGAGCCDFGEFDPEIEGRYKADLVLEQLERLGKVSQPPTCEVVSFGSPTQWRTRMRLGVDAQGRAGGFASQSREVVSGVPCSQGVMGLLDGIVGAEQNVLRFTPGSQVVVVCDDLGQRTVVETQPAPRGKRTESMVKVVEGTGKVSQVVDGVTFELPATGFWQSHKDAAQAYADTIREWFGSLIIRNTDSSLVAWDLYGGCGSFASAILSAVDNHGVVHCVESAPAAVSAGKRALSQLVEDQKIVFHTETVERAMNQLPAPTLVVLDPPRVGAGAETVRAIAQSGPQAAIHIGCDPATFARDIAEWSRNGFILEKLRVFDAFPGTHHCETIGLLTKKN” reads “not soluble”.
The result for “MSLNQASLERNELHNTIWKVANELRGSVDGWDFKQYVLGILFYRYISENMTHYINKEERKRDPSFDYAKLSDEKAERGRKHLIEQKGFFIPPSALFCNALKNACHNEDLNVTLQNIFNEIEKSSLGTPSEENVKGLFADLDVNSNKLGSSHQNRVEKLTKILEAIGGMQLGDYLKSGIDVFGDAYEYLMAMYASNAGKSGGEFFTPQEVSELLAKITLHGQESVNKVYDPCCGSGSLLLQFSKVLGDKNVSKGYFGQEINLTTYNLCRINMFLHDINYSKFHIAHGDTLLDPKHEDDEPFDAIVSNPPYSTKWVGDSNPILINDERFSPAGVLAPKNAADLAFTMHMLSYLSNSGTAAIVEFPGVLYRGNAEAKIREYLVKENVIDCVIALPDNLFFGTSIATCILVLKKNEGHHHHHH” reads “not soluble”; that for “MEKPDINVAEAWEQYWNKTLVNATPVLWDANVERAVVVDLPRFQSFFDTELPLIDFACGNGTQTKFLSQFFPRVIGFDVSKTALEMASKENTAANISYRLLDGLVPEQAAQIHSEIGDANIYMRTGFHHIPVEKRELLAQSLRTLLGKQGVMYLIELGTGCIEFFNSLLEKYGKLPYELSLVMEHGIRPGIFTTEDIELYFPDFEILSQGESLFQSIHKLPDGNYATPPAFWAVIKRHLEHHHHHH”, “soluble”.
With “MKETNGIPARLRQVAVIRDGPRQETVVLEADGMYYIKGETVYLQFAEENELGRVNNIVKIAPDEVTVLRSGAVEMRQTSRRRQETSGHYGTVFGRWALAAKTSSMEFHYDERRKKGRLFLSYELMLGDERSGRHTLTLTFKGV”, the “soluble on expression in E. coli” value is reported as “not soluble”.
For “DKKIMVIVNTVDKAITLYEKLRDLSPCLIHSRFKIGDRDEKLRKECNIIIATQVIEVGVNISSEVMITEQAPITSIVQRVGRLLRDNKKDKGELYIWKSGNYYPYDKDEVENTIKELESKKNDISL” the value was “not soluble”; for “MEIEVKFRVNFEDIKRKIEGLGAKFFGIEEQEDVYFELPSPKLLRVRKINNTGKSYITYKEILDKRNEEFYELEFEVQDPEGAIELFKRLGFKVQGVVKKRRWIYKLNNVTFELNRVEKAGDFLDIEVITSNPEEGKKIIWDVARRLGLKEEDVEPKLYIELINGLEHHHHHH”, “soluble”; for “MSAAVQKRASTNTVAATTYFKPAPSEIAWGKMRFLITDRPNNSSIQSYIEELEKHGARAVVRVCEPTYDTLALKEAGIDVLDWQFSDGSPPPPEVIKSWFQLCMTSFKEHPDKSIAVHCVAGLGRAPVLVAIALIEAGMKYEDAVEMIRTQRRGALNQKQLKFLETYKANGELRRLRGNVDGKQKSCCIQ”, “not soluble”.
The result for “PIAQIHILEGRSDEQKETLIREVSEAISRSLDAPLTSVRVIITEMAKGHFGIGGELASKVRR” reads “soluble”; that for “MKELRRFHLDHDFKIRDWVVVLNEIVVSRWDEVRREKVYRIGFQEFDCSDGWDIEREDGTIATVVFVKSSFDFFVWSK”, “not soluble”.
“MFEEGSEDEVTLMGCTQDEVKPKVGLSQKKWFPKEDIVLVRAWLNTNKDHVIGNDQQCQSFLKQIASYVAISPQLDYLPKREHAKCKQRWSKVNKSVTKFVGCYKTATTHKTSGQSEDDVMKLAYEIYYNDTKKKFNLEHTWRKLRYDQKWCEAATIKGNKNAKRKCVDGY”: the “soluble on expression in E. coli” value is “soluble”.
The result for “MNVVKISPRGYCYGVVDAMVLARQAAQNLDLPRPIYILGMIVHNKHVTDAFEEEGIISLDGPNRLDILKQVDKGTVIFTAHGVSPQVRKLAKEKGLTVVDATCPDVTRTHDLIREKSQEGYKFIYVGKKGHPEPEGAIGVAPEFVHLVENVEDVESLDISADKIIITNQTTMSQWDVSEIMKKAMEKYPQAEVHNEICLATQVRQEAVAEQARECDLVIVVGDPKSNNSNRLAQVSEQIAGTKAYRIGDVTELQQEWFDGVETVGVTAGASTPTPITKEVIAFIEKYDPSKPETWTPERKVTLQKILPKVKIKKLEHHHHHH” reads “soluble”; that for “GHMGQSPDAPIADTPGEQQEINLYSSRHYNTDNELYAKFTAETGIKVNLIEGKADELLERIKSEGANSPADVLLTVDLARLWRAEEDGIFQPVQSEILETNVPEYLRSPDGMWFGFTKRARVIMYNKGKVKPEELSTYEELADPKWKGRVIIRSSSNEYNQSLVASLVVADGEESTLAWAKGFVSNFAREPQGNDTAQIEAVSSGEADLTLANTYYMGRLLESEDPAQKAIAENVGVFFPNQEGRGTHVNVSGVGVVKTAPNREGAVKFIEFLVSEPAQAFLAQNNYEYPVLAGVPLNKSVASFGEFKSDTTSLDKLGPALAPATKIMNEAGWK”, “soluble”; that for “MGSDKIHHHHHHMSESCILFFVKYPEPGKVKTRLGEVVGNDKAAMLYRHFVQDMLQGLARLHADLHICYVPGDADLPEKFKAWLGPQHMFAAQQGLDLGERMKHAMQKAFDDGYDRVVLMGSDIPDYPCELVQKALNDLQHYDAAIGPAFDGGYYLIGFRKDSFCPDVFDGIRWGEADVYQPTVEKMRRARLEVLQLPDWNDVDTVWDLNVLYRTNKNSSFRRSSTYALLRENDALIRQYDIDLPGMAPVEKE”, “not soluble”.
For “MKSMTGFGKKTIQNENYQLDIEVKSVNQRFLDIQLRMPKELNAYELVIRQVIKRTLKRGRVEVYVNLQKIGNNQKEVRVQWDLIDQLLTSVDQHLKEKYPEATFDAGDTVNHLLKQNDFVEIVEAEIVDQTFEPFLVQAFEAAIASLDQSRVQEGTQIKQVLLDYVAVLTQSIQELQAFVGVFEQEYRQRFEAKLNEWLGSQVDETRLLTEMAILLEKGDIHEELDRLDIHIDKLHQLLDETEPVGRELDFLIQEMNREVNTIGSKSSPIEIKNSVVQMKTTLEKIREQIQNVE” the value was “not soluble”; for “MTEKLKNSKEVIAYIAECFPKCFTLEGEAKPLKIGIFQDLAERLNEDEKVSKTQLRAALRQYTSSWRYLHGVKPGAVRVDLDGNPCGELEEEHVEHAKATLAESKAKVQARRKEQAQKAREEGKAKAKPAANKKPQQPRRTNKPKVQKPTKPVETRALNADEITVGNAVNVNMGKGNMAATIVEINKDDVRVQLANGLQMVVKAEHLRA”, “soluble”.
For “MSLKKILIIVPDGGMLFESAGIADILMQANRLHPEGAREICYQVKLATTQPHQVIHGQSGLNLLADHRLHEIDPREPLDTIMITGRGQNPQEGMAVVDWLRLAAPHARRIVSICGGAMLLAQTGLLDGRRATTHWKLLETMQAEFPQIRVEGGPLYIQDEHIWTSGGVSSGFDLTLALVEEDYGFSLARDIAQDFVMYLRRPGGQLQFSRYNLQQTATQGPINDLLAWLLENLTADLSVDKLAEKVAMSPRNFTRVFTRETGASPARYVAEARLAAARQRLEQTHETLDRIAEQTGFGSSINLRRLFEKQLNLTPGEYRQRFHCRKMAEGHHHHHH” the value was “soluble”; for “MAHHHHHHMSARKFAGEYVSRHLDGLTVLASLADRPAAAKPVICTHNGSFHCDEAMACGLLRHVPEYREAVILRTRDPKQIDACDIVVDVGAIYDADTNRYDHHQASFHGTMTTPKKAYKTRLSSAGLVYKHFGRQIICEYVEAVLQPSSPARAAVLSMTSWSESRTGLSEAELDVLEDALYAHFVEQVDGIDNGVECWGLADPAVGTLVPNYTQSTSLSQRIGQLQAYWNEPENGDVVAENANFAVAVEMAVTEFFKALTYLSFSWLPARSIVEAAFQRRHEFDESGKIMVFKGVKACPWKDHLLELEAESNCLGAVLYVVFSDGKGWRVQAVPKTSTSFENRKPLPYRGLRDDALSAACGIEGGVFVHVSGFIGGMKTFDGAMALAKQALVVVN”, “soluble”; for “MSGNGVKKVAEVAAKAGKAIDWEGMAKMLVSDEARKEFNTLRRTFEDVNHQLQTKFSQEPQPIDWEYYRKGIGSKVVDMYKEAYERTSCFVNPNVNAFCGTVICSEMHVLLCDLVNRSEDTKHEINAGIEIPKYVDTVTPQYKPKFDALLVELKEAEKESLKESERIEKELAELQEMKKNISTMTADEYFAKHPEVKQKFDDEIRNDNWGY”, “soluble”.
On to “MSLTADPPACTVPAAGGASTHKLVNAGAEKMIFKIKSSNNNEYRITPVFGFVDPSGSKDITITRTAGAPKEDKLVVHFAAAPADATDAQAAFAAITPAGTITIPMSATA”, for which the “soluble on expression in E. coli” value was “soluble”.
The result for “SPSCSPQQASKAEENGSNSFMHSMVPQLEWQMETTQSLVDSYVAIVNKTVWDLMVGLTPKTIMHLMINNNKEFIFSELLANLYLHGDKNMLMEESAEQAQRS” reads “soluble”.
For “MKKALFLVGLVFTAGVISSCGGVSSQRTYEGAAVGAAVGAAAGVLLDKENRWRGGVIGAALGAILGGTITEIAQRAAKEAAQNNKPVVYRAEDGSQMVRAEPVEKRGNCTLVKTKYYQNGKLVKVEEKEVCE” the value was “not soluble”; for “MNRSNAQTERGRRWYVGDRLHVDVRGLPCPEPLVTVLRLIDGSEVGDGLTALVSQEPLLLYPELDARGCRYRMVTPAGDTLLRDGEVVLEIERSK”, “not soluble”.
